Results as given in PMC2965138, “DEB025 (Alisporivir) Inhibits Hepatitis C Virus Replication by Preventing a Cyclophilin A Induced Cis-Trans Isomerisation in Domain II of NS5A” (PLoS ONE, 2010).

Molecular target: T1, Recombinant 15N-labelled CypA (UniProt P62937 1-165, 15N-labelled)
T1 construct: Cyclophilin A (CypA), peptidyl-prolyl cis-trans isomerase; also called 15N-CypA; source: recombinant, produced and purified as described previously [18]
Test: NMR titration; 15N-labelled CypA (100 µM) mixed with increasing concentrations of unlabelled peptide (0 to 2.5 mM); 1H,15N HSQC at each step; KD fitted from combined chemical shift perturbations
Details: both partners purified

Binder | Kd [µM]
KFPRAMPIWARPDYNPPLLE (NS5A domain II of hepatitis C virus genotype 1b (Con1), residues 308-327; numbers count on: NS5A itself; also called WT peptide; Pep-WT peptide; source: synthetic peptide, bought: Neosystems (Strasbourg, France), purity greater than 95%) [Pep-WT (residues 308-327 of NS5A from HCV GT1b Con1)] | 802
KFPRAMPIWARPEYNPPLLE (numbers count on: NS5A itself; also called D320E peptide; Pep-D320E peptide; source: synthetic peptide, bought: Neosystems (Strasbourg, France), purity greater than 95%) [Pep-D320E (residues 308-327 of NS5A from HCV GT1b Con1 with D320E)] | 1230
